Source: US12195506B2, “Immunotherapy with A*01 restricted peptides and combination of peptides against cancers and related methods” (Immatics Biotechnologies GmbH, priority 2018, dated 2025)

biological target: HLA-A*01:01 (Homo sapiens, UniProt P04439, A114D/A174V/A182V/D101N/D185E/E176A/E190D/L180R/Q94H/R68K/S129P/T187R/V100A/V91M/W191G); assay: MHC binding assay: UV-ligand exchange, ELISA of stabilized MHC complexes (peptide exchange yield); settings: binding to HLA-A*01:01, UV-ligand exchange
Summary of the method: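 Peptide–MHC complexes were formed by UV-induced exchange of a photocleavable ligand for the test peptide. Exchange yield was measured by streptavidin-capture ELISA of 100-fold diluted complexes, detected with HRP anti-β2m at A450. Refolded HLA-A*02:01/MLA-001 monomers at 15-500 ng/ml served as standards.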

Substance	Peptide exchange
157 (GLIEVVTGY; listed as Homo sapiens) [compound 157]	++++ (>75% = ++++)
169 (TVDNANILL; listed as Homo sapiens) [compound 169]	++ (>20% = ++)
95 (SSDPKAVMF; listed as Homo sapiens) [compound 95]	++ (>20% = ++)
394 (QVPLDCVLY; listed as Homo sapiens) [compound 394]	++ (>20% = ++)
28 (PSEVPVDSHYY; listed as Homo sapiens) [compound 28]	+++ (>50 = +++)
350 (LTDPQVSYV; listed as Homo sapiens) [compound 350]	+++ (>50 = +++)
240 (EVLDSLLAQY; listed as Homo sapiens) [compound 240]	++ (>20% = ++)
101 (SITDVDFIY; listed as Homo sapiens) [compound 101]	++ (>20% = ++)
108 (NSNLKFLEV; listed as Homo sapiens) [compound 108]	++ (>20% = ++)
182 (TQPELSSRY; listed as Homo sapiens) [compound 182]	++ (>20% = ++)
393 (QVWGGQPVY; listed as Homo sapiens) [compound 393]	+ (>10% =+)
241 (SLMVASLTY; listed as Homo sapiens) [compound 241]	++ (>20% = ++)
17 (ASWAVLCYY; listed as Homo sapiens) [compound 17]	+++ (>50 = +++)
246 (ARLEGEIATY; listed as Homo sapiens) [compound 246]	++ (>20% = ++)
223 (NAVDVVPSSF; listed as Homo sapiens) [compound 223]	+ (>10% =+)
147 (AQVQDTGRY; listed as Homo sapiens) [compound 147]	+++ (>50 = +++)
266 (LTDSFLLRF; listed as Homo sapiens) [compound 266]	++++ (>75% = ++++)
121 (SADEAHGLL; listed as Homo sapiens) [compound 121]	++ (>20% = ++)
375 (ASSLDSLHY; listed as Homo sapiens) [compound 375]	++++ (>75% = ++++)
63 (TSEISQNALMY; listed as Homo sapiens) [compound 63]	++++ (>75% = ++++)
35 (SWSAGENDSYS; listed as Homo sapiens) [compound 35]	+ (>10% =+)
188 (DIPDYLLQY; listed as Homo sapiens) [compound 188]	+++ (>50 = +++)
311 (TVTDGTHTDFY; listed as Homo sapiens) [compound 311]	++ (>20% = ++)

Substance	Peptide exchange
225 (STDPNIVRK; listed as Homo sapiens) [compound 225]	+++ (>50 = +++)
163 (KIRAEVLSHY; listed as Homo sapiens) [compound 163]	++ (>20% = ++)
69 (QSLPEFGLTYY; listed as Homo sapiens) [compound 69]	++ (>20% = ++)
122 (ISEAPLTEV; listed as Homo sapiens) [compound 122]	++ (>20% = ++)
257 (KSEMNVNMKY; listed as Homo sapiens) [compound 257]	++++ (>75% = ++++)
236 (VLDSLLAQY; listed as Homo sapiens) [compound 236]	++++ (>75% = ++++)
238 (ETDWGLLKGHTY; listed as Homo sapiens) [compound 238]	++++ (>75% = ++++)
227 (ESAPKEVSRY; listed as Homo sapiens) [compound 227]	++ (>20% = ++)
388 (YTAHVGYSMY; listed as Homo sapiens) [compound 388]	++++ (>75% = ++++)
195 (YTADNEMGYY; listed as Homo sapiens) [compound 195]	+++ (>50 = +++)
345 (NTMDAVPRIDHY; listed as Homo sapiens) [compound 345]	++++ (>75% = ++++)
390 (FSEPFHLIVSY; listed as Homo sapiens) [compound 390]	++++ (>75% = ++++)
356 (NSENHILKY; listed as Homo sapiens) [compound 356]	++++ (>75% = ++++)
48 (FTTQDELLVY; listed as Homo sapiens) [compound 48]	+++ (>50 = +++)
384 (RFRSITQSYY; listed as Homo sapiens) [compound 384]	+ (>10% =+)
136 (RRLNFSGFGY; listed as Homo sapiens) [compound 136]	+++ (>50 = +++)
99 (AADSNPSEL; listed as Homo sapiens) [compound 99]	++ (>20% = ++)
321 (DGIADASNLSYY; listed as Homo sapiens) [compound 321]	++ (>20% = ++)
213 (VSDSTTEITY; listed as Homo sapiens) [compound 213]	+++ (>50 = +++)
304 (FSENLIYTYI; listed as Homo sapiens) [compound 304]	++ (>20% = ++)
20 (LSAQHRMLA; listed as Homo sapiens) [compound 20]	++ (>20% = ++)
329 (NTDSMTLNNTAY; listed as Homo sapiens) [compound 329]	++++ (>75% = ++++)
144 (RTIEGDFLW; listed as Homo sapiens) [compound 144]	++ (>20% = ++)

Other lines, results leading:

Peptide exchange	Substance
++ (>20% = ++)	124 (FLKVTGYDKDDY; listed as Homo sapiens) [compound 124]
++++ (>75% = ++++)	47 (WSDGVPLLY; listed as Homo sapiens) [compound 47]
++ (>20% = ++)	326 (STSRLTLFS; listed as Homo sapiens) [compound 326]
++++ (>75% = ++++)	253 (YLESHGLAY; listed as Homo sapiens) [compound 253]
++ (>20% = ++)	102 (STIRGELFF; listed as Homo sapiens) [compound 102]
++ (>20% = ++)	385 (SANALILTY; listed as Homo sapiens) [compound 385]
++++ (>75% = ++++)	254 (FLFNDALLY; listed as Homo sapiens) [compound 254]
++++ (>75% = ++++)	107 (TTENSGNYY; listed as Homo sapiens) [compound 107]
++ (>20% = ++)	299 (EVDSVALSL; listed as Homo sapiens) [compound 299]
+++ (>50 = +++)	262 (NVKHFLNDLY; listed as Homo sapiens) [compound 262]
+++ (>50 = +++)	368 (ESAATGQLDY; listed as Homo sapiens) [compound 368]
+++ (>50 = +++)	221 (TDVERIKDTY; listed as Homo sapiens) [compound 221]
++++ (>75% = ++++)	46 (RSDPGGGGLAYAAY; listed as Homo sapiens) [compound 46]
+++ (>50 = +++)	272 (IPQDECLRY; listed as Homo sapiens) [compound 272]
++++ (>75% = ++++)	128 (YTEFVDATFTK; listed as Homo sapiens) [compound 128]
++ (>20% = ++)	328 (LLDEDNNIKL; listed as Homo sapiens) [compound 328]
++ (>20% = ++)	354 (EIIRYIFAY; listed as Homo sapiens) [compound 354]

Peptide exchange	Substance
++ (>20% = ++)	151 (YEVDTKLLSL; listed as Homo sapiens) [compound 151]
+++ (>50 = +++)	295 (GQRLDEAMISY; listed as Homo sapiens) [compound 295]
++++ (>75% = ++++)	216 (NSMLDPLVY; listed as Homo sapiens) [compound 216]
+ (>10% =+)	308 (ELAAGQVVY; listed as Homo sapiens) [compound 308]
++ (>20% = ++)	338 (YSPDSFNVSW; listed as Homo sapiens) [compound 338]
++++ (>75% = ++++)	364 (DTGYLQLYY; listed as Homo sapiens) [compound 364]
+++ (>50 = +++)	212 (MMTDLTSVY; listed as Homo sapiens) [compound 212]
++ (>20% = ++)	189 (FRGVFVHRY; listed as Homo sapiens) [compound 189]
++ (>20% = ++)	217 (LMDEGAVLTL; listed as Homo sapiens) [compound 217]
++++ (>75% = ++++)	342 (QTYMDGLLHY; listed as Homo sapiens) [compound 342]
+++ (>50 = +++)	32 (GTDKQNSTLRY; listed as Homo sapiens) [compound 32]
++ (>20% = ++)	282 (QAMPSWPTAAY; listed as Homo sapiens) [compound 282]
++ (>20% = ++)	87 (AFDDIATYF; listed as Homo sapiens) [compound 87]
+++ (>50 = +++)	359 (NKEINYFMY; listed as Homo sapiens) [compound 359]
+ (>10% =+)	45 (NLDPNKIY; listed as Homo sapiens) [compound 45]
+++ (>50 = +++)	103 (ITDTLIHLM; listed as Homo sapiens) [compound 103]
++ (>20% = ++)	89 (EVYDGREHSAY; listed as Homo sapiens) [compound 89]
